Assay results reported in patent US20220033904A1 (CHILDREN S MEDICAL CENTER, published 2022).

Legend:
[1] = biological target: SMO
[2] = biological target: T1, FZD5
T1 chain: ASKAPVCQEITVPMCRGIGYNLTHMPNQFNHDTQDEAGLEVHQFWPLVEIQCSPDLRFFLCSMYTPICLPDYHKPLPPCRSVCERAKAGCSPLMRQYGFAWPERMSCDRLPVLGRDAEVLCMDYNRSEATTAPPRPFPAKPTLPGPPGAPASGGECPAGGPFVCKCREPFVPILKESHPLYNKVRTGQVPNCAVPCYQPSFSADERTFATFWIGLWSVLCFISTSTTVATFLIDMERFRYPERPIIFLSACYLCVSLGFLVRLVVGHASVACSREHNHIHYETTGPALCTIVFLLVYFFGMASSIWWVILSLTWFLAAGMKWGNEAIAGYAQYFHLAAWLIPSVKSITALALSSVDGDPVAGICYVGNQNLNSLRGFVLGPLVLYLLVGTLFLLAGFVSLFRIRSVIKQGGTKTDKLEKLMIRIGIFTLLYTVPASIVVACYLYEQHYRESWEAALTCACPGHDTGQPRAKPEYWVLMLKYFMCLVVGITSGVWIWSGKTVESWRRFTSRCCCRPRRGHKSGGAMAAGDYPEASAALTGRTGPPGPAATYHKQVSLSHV

[3] = biological target: T2, LRP6 (human, UniProt O75581 20-1613); assay: co-IP, immunoblot (FIG. 3F)
T2 construct: whole, on cells; The legend says 'endogenous FZD5 but not LRP6'
T2 sequence (O75581 20-1613): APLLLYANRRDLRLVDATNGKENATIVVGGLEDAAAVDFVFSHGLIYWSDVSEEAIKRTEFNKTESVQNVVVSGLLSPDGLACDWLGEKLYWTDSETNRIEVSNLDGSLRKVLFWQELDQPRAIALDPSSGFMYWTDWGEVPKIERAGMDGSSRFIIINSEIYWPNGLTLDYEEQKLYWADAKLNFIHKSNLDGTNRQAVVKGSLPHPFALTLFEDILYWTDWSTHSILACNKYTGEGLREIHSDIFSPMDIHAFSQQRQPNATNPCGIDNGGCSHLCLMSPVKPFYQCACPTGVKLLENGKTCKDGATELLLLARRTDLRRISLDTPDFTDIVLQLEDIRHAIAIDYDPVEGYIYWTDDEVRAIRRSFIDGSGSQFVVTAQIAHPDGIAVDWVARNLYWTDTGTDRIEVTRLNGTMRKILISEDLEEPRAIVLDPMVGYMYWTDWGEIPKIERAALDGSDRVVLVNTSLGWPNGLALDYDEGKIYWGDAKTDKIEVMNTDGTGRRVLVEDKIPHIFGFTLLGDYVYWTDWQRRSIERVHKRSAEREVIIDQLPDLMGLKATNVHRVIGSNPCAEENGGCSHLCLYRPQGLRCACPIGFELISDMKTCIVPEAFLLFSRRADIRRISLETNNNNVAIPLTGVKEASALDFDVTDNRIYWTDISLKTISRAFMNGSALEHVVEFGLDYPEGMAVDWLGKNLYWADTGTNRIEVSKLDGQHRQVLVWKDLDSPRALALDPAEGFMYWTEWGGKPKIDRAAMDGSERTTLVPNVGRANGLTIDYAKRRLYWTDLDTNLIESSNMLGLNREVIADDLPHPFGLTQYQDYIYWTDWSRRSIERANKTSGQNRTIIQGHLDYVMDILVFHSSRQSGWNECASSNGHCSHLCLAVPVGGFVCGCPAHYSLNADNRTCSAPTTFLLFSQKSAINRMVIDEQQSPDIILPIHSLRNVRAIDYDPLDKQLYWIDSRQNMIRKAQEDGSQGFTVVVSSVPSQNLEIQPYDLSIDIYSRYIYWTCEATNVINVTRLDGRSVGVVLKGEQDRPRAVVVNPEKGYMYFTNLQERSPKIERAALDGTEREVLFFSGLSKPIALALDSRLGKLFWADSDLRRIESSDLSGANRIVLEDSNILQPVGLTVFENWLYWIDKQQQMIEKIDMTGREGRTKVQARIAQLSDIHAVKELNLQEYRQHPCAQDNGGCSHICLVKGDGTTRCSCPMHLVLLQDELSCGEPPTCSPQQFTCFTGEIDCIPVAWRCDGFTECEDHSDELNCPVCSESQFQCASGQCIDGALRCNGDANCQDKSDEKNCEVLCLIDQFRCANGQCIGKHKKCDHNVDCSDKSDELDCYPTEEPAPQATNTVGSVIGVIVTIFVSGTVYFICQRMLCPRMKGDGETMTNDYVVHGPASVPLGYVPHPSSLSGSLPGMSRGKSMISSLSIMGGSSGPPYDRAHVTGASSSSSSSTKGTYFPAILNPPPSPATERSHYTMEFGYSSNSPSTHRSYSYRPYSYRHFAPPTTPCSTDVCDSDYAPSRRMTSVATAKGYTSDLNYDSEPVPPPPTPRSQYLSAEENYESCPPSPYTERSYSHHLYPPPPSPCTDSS

[4] = biological target: T3, USP8N (UniProt P40818 1-714, limits assumed); assay: co-IP, immunoblot (FIG. 5C)
T3 construct: domain: USP8 N terminus; also called USP8 N terminus; N-terminal half of USP8
T3 sequence (looked up): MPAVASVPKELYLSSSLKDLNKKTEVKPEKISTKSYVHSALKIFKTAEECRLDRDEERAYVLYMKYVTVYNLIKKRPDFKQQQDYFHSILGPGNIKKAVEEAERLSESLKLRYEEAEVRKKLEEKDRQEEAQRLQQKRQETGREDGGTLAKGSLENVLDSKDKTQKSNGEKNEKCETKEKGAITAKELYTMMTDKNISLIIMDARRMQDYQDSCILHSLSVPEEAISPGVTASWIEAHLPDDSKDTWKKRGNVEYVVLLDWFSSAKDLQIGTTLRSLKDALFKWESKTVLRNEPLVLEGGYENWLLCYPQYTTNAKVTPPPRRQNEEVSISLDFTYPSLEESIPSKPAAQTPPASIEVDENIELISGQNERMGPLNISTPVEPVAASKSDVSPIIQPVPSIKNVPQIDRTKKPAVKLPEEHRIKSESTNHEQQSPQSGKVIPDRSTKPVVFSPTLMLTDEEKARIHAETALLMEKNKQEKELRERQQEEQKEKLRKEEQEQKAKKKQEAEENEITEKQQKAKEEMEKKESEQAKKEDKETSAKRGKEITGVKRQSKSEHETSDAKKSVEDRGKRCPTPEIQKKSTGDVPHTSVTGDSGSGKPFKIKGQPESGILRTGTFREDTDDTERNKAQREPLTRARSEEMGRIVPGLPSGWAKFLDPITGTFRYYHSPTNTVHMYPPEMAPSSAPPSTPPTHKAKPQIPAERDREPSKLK

B1: USP8C (protein)
chain: RSYSSPDITQAIQEEEKRKPTVTPTVNRENKPTCYPKAEISRLSASQIRNLNPVFGGSGPALTGLRNLGNTCYMNSILQCLCNAPHLADYFNRNCYQDDINRSNLLGHKGEVAEEFGIIMKALWTGQYRYISPKDFKITIGKINDQFAGYSQQDSQELLLFLMDGLHEDLNKADNRKRYKEENNDHLDDFKAAEHAWQKHKQLNESIIVALFQGQFKSTVQCLTCHKKSRTFEAFMYLSLPLASTSKCTLQDCLRLFSKEEKLTDNNRFYCSHCRARRDSLKKIEIWKLPPVLLVHLKRFSYDGRWKQKLQTSVDFPLENLDLSQYVIGPKNNLKKYNLFSVSNHYGGLDGGHYTAYCKNAARQRWFKFDDHEVSDISVSSVKSSAAYILFYTSLGPRVTDVAT
- deubiquitination (ubiquitylation assay) [1]: USP8C promoted deubiquitination of both FZD5 and SMO
- deubiquitination (ubiquitylation assay) [2]: USP8C promoted deubiquitination of both FZD5 and SMO

B2: TMEM79-Flag (other)
chain: MTEPETLALLDMKEPETPEKSPPQALVLQSEEEGGTESPGTESLRVGSSVGSPIVREGPEDGPDSTISEAATLPWGTDPHPSAPLPDPPGWRDIEPEPLESEAPTKSEEPFKEDANLLPEKTVRAFVPIDLQCIERKPQEERILHRDAGPGELRNFLPARLSHPEPPERKWAEAVVRPPGRSCGGCGSCGGREALRAVASVVAALIFFPCLLYGAYAFLPFDAPRLPTMSSRLVYTLRCGVFATFPIVLGLLVYGLSLLCFSALRPFGEPRREVEIHRQYVAQSVQLFILYFFNLAVLSTYLPQDTLKLLPLLTGLFAISRLIYWLTFAVGRSFRGFGYGLTFLPLLAMLVWNLYYMFVVEPERMLTASESRLDYPDHARSVSDYRPRSWG
notes: Expressed in HEK293T cells; co-IP from lysates; not shown: Flag tag at the C-terminus
- binding result [3]: no binding

B3: TMEM79 (other)
chain: MTEPETLALLDMKEPETPEKSPPQALVLQSEEEGGTESPGTESLRVGSSVGSPIVREGPEDGPDSTISEAATLPWGTDPHPSAPLPDPPGWRDIEPEPLESEAPTKSEEPFKEDANLLPEKTVRAFVPIDLQCIERKPQEERILHRDAGPGELRNFLPARLSHPEPPERKWAEAVVRPPGRSCGGCGSCGGREALRAVASVVAALIFFPCLLYGAYAFLPFDAPRLPTMSSRLVYTLRCGVFATFPIVLGLLVYGLSLLCFSALRPFGEPRREVEIHRQYVAQSVQLFILYFFNLAVLSTYLPQDTLKLLPLLTGLFAISRLIYWLTFAVGRSFRGFGYGLTFLPLLAMLVWNLYYMFVVEPERMLTASESRLDYPDHARSVSDYRPRSWG
notes: It was expressed in HEK293T cells and tested by co-IP from lysates; also called Mattrin; full length TMEM79; not shown: Myc or Flag tag or both at the C-terminus
- binding result [4]: no binding
